Test results: the supplement of paper PMC12042874
± gives the uncertainty stated by the source.

Assay: amyloid nucleation score (Sup35N fusion, yeast selection) (log enrichment); library NNK2; higher = more nucleation; inactive = no reads after selection
Outline: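 In psi-negative yeast, Sup35N fusions carrying peptides of 20 random codons were induced with 100 μM copper sulfate for 24 hours. The cells then grew 7 days at 30°C on medium lacking adenine and uracil, and plasmid inserts from input and output were Illumina-sequenced, excluding sequences with under 100 input reads. Nucleation score is the DiMSum log enrichment of output over input reads, centred on the mode score of non-aggregating sequences.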

Substance | amyloid nucleation score
AIVSMFGVITY | -2.57 ± 0.62
AKLPKPSRLHQRLTKQTV | 1.19 ± 0.38
AKLRHWDCHFTR | 0.405 ± 0.2
AKSNLVDFYTFWSTIECLTM | -0.808 ± 0.48
ALFMDPFAVTLMRGL | 0.137 ± 0.54
ALGYSRLTEYGLDRMVQTAC | 0.908 ± 0.52
ALINHWNLVTFS | inactive
ALIRFCTSW | 0.588 ± 0.16
ALPPPVKELPWISRFRQWGR | 1.22 ± 0.47
ALTVKSQLCG | -1.71 ± 1.1
ALWTLNDSSPDYKSPYTGGS | 0.508 ± 0.6
ALYFVIQLPV | -0.677 ± 0.63
AMLRPQTDHGVSSIHSLIIG | inactive
AMRFLALAWWTPGFSIGELM | 4.846 ± 0.035
AMSECQHKMQWAAFSVFPGQ | 5.91 ± 0.089
AMWESLP | 1.41 ± 0.25
AMWFN | 0.932 ± 0.47
AMYLPWARCSISPTNLIFNL | -1.1 ± 0.42
ANGGYMVYSFAEEYYYDWCT | -0.063 ± 0.29
ANMLRWLNFETFAVSRNLAI | 0.009 ± 0.74
ANMTSHEFRWKSN | -0.168 ± 1.1
ANNICCGASEKYGRWASTID | -0.76 ± 1
ANYMRYYSGLICFTESRYMS | 1.5 ± 0.17
APGWKLMNTSPNRMSTLNLQ | -0.633 ± 1.1
APHSLVVGCTVVLF | 7.589 ± 0.037
APRWWFYVDSY | 0.237 ± 1

Substance | amyloid nucleation score
AQCAYTTDGFPFLCWRSGTF | 0.701 ± 0.6
ARCTKINLGPYRGSINSLFW | inactive
ARFILFVALFWKFLY | 0.431 ± 0.46
ARFWWALGNLCERIAGNDWV | 0.216 ± 0.44
ARGGKLLSCFCSGWRLDHVR | 9.958 ± 0.051
ARLLTRNINESNRFI | 0.065 ± 0.28
ARLLWMRP | inactive
ARMITWGRNMILTPSPMRHK | -0.783 ± 1
ARMSFWRRRPLLLSLRRSGV | 0.379 ± 0.44
ARNWVHNCFWSHISFTSIA | 1.59 ± 0.13
ARQDYWIRWLTALSMMYGSG | -0.071 ± 0.31
ARSMVMHYFWGSTLAPESKF | -0.801 ± 0.45
ARTKVIY | -1.34 ± 0.75
ARTLWY | -0.522 ± 0.28
ARVIECLHGRN | -0.147 ± 0.44
ASITIHSFKMRTYTRAITRE | 3.92 ± 0.064
ASLLGQKSAVGILRIHSKLY | -0.573 ± 1.1
ASPFRF | 0.816 ± 0.74
ASPSHACGLC | 2.12 ± 0.15
ASQFCNKSSSYRDSRYLYTL | -0.802 ± 0.38
ASSTRRSRSFNIGILCMFRM | 5.66 ± 0.06
ASVCHTLVGILYDDEGARTR | 0.85 ± 0.4
ATFVIY | -0.603 ± 1
ATIGSLWRNYNERLFST | 4.06 ± 0.089
ATPLSGMVFNWSFEWQGCLL | 0.949 ± 0.18
AVIDIIKRTSCTCDESCCIL | 0.503 ± 0.31

Substance | amyloid nucleation score
AVIVAIFCSSGYYRHFYTFT | -0.214 ± 1
AVLFNDTWGGFAPNWYLLLS | 0.474 ± 0.38
AVNGQGDS | -0.231 ± 0.43
AVPCNC | -0.216 ± 0.62
AVRPGSRSWGVIRGVNSTFL | 1.08 ± 0.43
AVSYVDILAFGLMFQKSLGK | 5.74 ± 0.063
AVVDH | 0.336 ± 0.41
AVVIWAKML | 0.372 ± 0.27
AVYCTL | 0.088 ± 0.35
AWDEINYD | 0.292 ± 0.56
AWETFELVLY | -0.145 ± 0.76
AWHIPLTCGLHVIFLGR | inactive
AWLVLWDIAI | 0.583 ± 0.36
AWLYFVLFNRVTCCMTNVEE | 9.571 ± 0.037
AWMRDLCSVYRCVGCDLLWA | 6.25 ± 0.081
AWYKFIITMPFIFKSDITST | -0.454 ± 0.54
AYFTYDNANLFDPFTRYTIE | 0.073 ± 0.55
AYHAMVCYINLFSDVYLHGY | 4.98 ± 0.089
AYIARYNPTSLNRVEYPPDD | 1.49 ± 0.58
AYKNYIPVVSVH | -1.37 ± 1.1
AYRLGFNVMLTDAVVARDIL | 0.512 ± 0.66
AYRWMDSSSTRFGTGLG | 0.895 ± 0.81
AYWYSQRAMGFKHSLFLT | -0.921 ± 0.41
AYYFVLNVSTNLGNLGRTIL | 4.35 ± 0.11
CACDNHIVNRSESHCYGSLR | -0.293 ± 0.39
CALGDATFNVWYMLS | 4.14 ± 0.05

Substance | amyloid nucleation score
CALNFCAEVARFLRMLKSLL | -0.042 ± 0.79
CARFAN | 0.599 ± 0.64
CASEVDNNSPPRWVRRTAGV | 0.777 ± 0.45
CASLRIEDP | 1.17 ± 0.18
CCAVTVAMECGGIVLVRYCF | 0.453 ± 0.66
CCCLSKHSNECGLRMDRPFT | 0.909 ± 0.6
CCDVRS | 0.558 ± 0.51
CCFTGIKGSYCFSWLACG | -0.082 ± 0.3
CCFVLTVR | 5.174 ± 0.035
CCGFGDEKDN | -0.206 ± 1.1
CCLENTRVLTVLVSLSMV | 0.582 ± 0.35
CCQFLVTWDVAYTSMFGSTL | 3.56 ± 0.056
CCQSSEYCWCAWQTSVTSVG | 0.404 ± 0.8
CCRGLIRMLDCCNYRRK | 3.75 ± 0.067
CCVVYF | 9.638 ± 0.039
CDFSSVTD | -0.357 ± 0.4
CDLFGSCVDIWDTYINLSDR | -0.573 ± 1.1
CDMSHGTFFTIFCRLTNA | 4.81 ± 0.11
CDQYHSQPWMLKTQIRLMTA | 1.27 ± 0.3
CDQYLIYNLSVSGMSIASRG | -0.497 ± 0.79
CEFRDQRFPLVCAGYGRYIG | 0.653 ± 0.57
CEHRSLTFWHNGLLD | -0.143 ± 0.65
CEMLCQTIHSTLTWGIRRLS | 1.12 ± 0.46
CFFFISAVGPEILIVGFLGV | -0.684 ± 1
CFFTCC | 9.912 ± 0.045
CFRNWACMSSQRYCMVVRGN | -1.58 ± 0.54

Substance | amyloid nucleation score
CFSRIFICN | -0.075 ± 0.49
CFVGTQLSFKVG | 0.173 ± 0.49
CFVWIIRLYVQSRMLSTSNL | -0.181 ± 0.8
CGLYWFMVFTF | 0.147 ± 0.76
CGNLSCPVGVCGIFRRPSTG | inactive
CGSRQAA | 5.3 ± 0.085
CGWTDFMMYTWTEIMQIQLR | -1.03 ± 0.76
CHKSACCKILVDDIALFN | -0.419 ± 0.32
CHLIVICIQFDKLNLESAFH | 0.547 ± 0.81
CHRAKTVVGNRVNRGDWDNP | -0.434 ± 0.76
CHRLSNLKRVDDAGFVRWNY | -0.477 ± 0.23
CIELFPFAMVNRIFATYSYH | -0.352 ± 0.25
CIGLHC | -0.196 ± 1
CIISFGLMHEYCYVAM | 1.9 ± 0.13
CILARWRYRRLHTSGLWASK | 0.9 ± 0.43
CIMVSIVPKGVCLGVLVAVA | 0.345 ± 0.28
CINANRGRFLKEIMDLVLRE | -0.586 ± 0.23
CINVYKY | 6.768 ± 0.026
CIRRESCIRICGGDCVCHRA | 2.97 ± 0.091
CIYVYSLVWM | 2.42 ± 0.2
CKKKSRTDCMLSFCVCFDGV | 7.276 ± 0.035
CKLISFIRYPPPAYVVSRER | 2.33 ± 0.13
CKMRFLNMWRHFLKCLTAYT | inactive
CKTTQDSDITCK | -0.747 ± 0.79
CKVSVDN | 0.011 ± 0.36
CKWIKEIVVED | -0.981 ± 1
